Results on 125 sequences are retold here after the supplement of paper PMC9112550, “Optimization of the antimicrobial peptide Bac7 by deep mutational scanning” (BMC Biology, 2022).

This series relates to Escherichia coli TOP10. Briefly: shrunken log2 fold change of peptide-encoding DNA abundance (4.5 h post-induction vs induction); higher = less antimicrobial activity (less host growth inhibition). Particulars: time post-induction: 4.5 h; library: site-saturation at positions 5, 18, 19, 20.
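Further: peptides expressed intracellularly from a pBAD plasmid library in pooled LB shake-flask culture, induced with 0.3% L-arabinose, DNA abundance read by NGS, three biological replicates, DESeq2 with apeglm shrinkage.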

For RRIRPRPPRLPRPRPRPFKNPRP, the “shrunken log2 fold change” value was -0.615.
For the sequence RRIRQRPPRLPRPRPRPYLCPRP, the “shrunken log2 fold change” value was -0.00822.
For RRIRARPPRLPRPRPRPHYQPRP the value was -0.459; for RRIRKRPPRLPRPRPRPCFGPRP, 0.194.
In the case of RRIRVRPPRLPRPRPRPLLWPRP, the “shrunken log2 fold change” value was 0.145.
As for RRIRKRPPRLPRPRPRPMNYPRP, the figure is 0.474.
As for RRIRFRPPRLPRPRPRPQPVPRP, the figure is 0.356; as for RRIRLRPPRLPRPRPRPKTQPRP, -0.189.
For RRIRLRPPRLPRPRPRPPNQPRP the value was 0.0881; for RRIRVRPPRLPRPRPRPHAQPRP, -0.224.
For RRIRQRPPRLPRPRPRPGRMPRP, the “shrunken log2 fold change” value stood at 0.0366.
For RRIRARPPRLPRPRPRPITNPRP the value was -0.54; for RRIRLRPPRLPRPRPRPHIQPRP, -0.341.
As for RRIRDRPPRLPRPRPRPKKHPRP, the figure is -0.0344; as for RRIRDRPPRLPRPRPRPRDYPRP, 0.0389.
For RRIRIRPPRLPRPRPRPLIYPRP, the “shrunken log2 fold change” value was -0.255.
Take RRIRGRPPRLPRPRPRPHSQPRP: the “shrunken log2 fold change” value is 0.322.
For RRIRTRPPRLPRPRPRPHPIPRP the value was -0.165; for RRIRGRPPRLPRPRPRPYCEPRP, 0.22.
RRIRARPPRLPRPRPRPRGDPRP: the “shrunken log2 fold change” value amounted to 3.26.
As for RRIRMRPPRLPRPRPRPYGPPRP, the figure is 0.0478; as for RRIRYRPPRLPRPRPRPVEPPRP, -0.384; as for RRIRTRPPRLPRPRPRPYSAPRP, -0.206.
As for RRIRWRPPRLPRPRPRPLNHPRP, the figure is -0.176.
As for RRIRKRPPRLPRPRPRPIWGPRP, the figure is -0.0432; as for RRIRCRPPRLPRPRPRPPYWPRP, 0.279; as for RRIRFRPPRLPRPRPRPWSNPRP, -0.0867.
For the sequence RRIRARPPRLPRPRPRPRACPRP, the “shrunken log2 fold change” value was found to be 0.447.
For RRIRFRPPRLPRPRPRPKCAPRP the value was -0.0345; for RRIRKRPPRLPRPRPRPVWTPRP, 0.485.
As for RRIRCRPPRLPRPRPRPLMCPRP, the figure is -0.306.
As for RRIRARPPRLPRPRPRPVWGPRP, the figure is 0.383; as for RRIRARPPRLPRPRPRPVERPRP, 0.732.
As to RRIRSRPPRLPRPRPRPMMTPRP, the “shrunken log2 fold change” value is -0.0968.
As for RRIRQRPPRLPRPRPRPLCIPRP, the figure is -0.28.
As for RRIRVRPPRLPRPRPRPSMQPRP, the figure is -0.223.
For RRIRPRPPRLPRPRPRPPKKPRP the value was 0.0716.
In the case of RRIRARPPRLPRPRPRPFWMPRP, the “shrunken log2 fold change” value is 1.14.
For RRIRIRPPRLPRPRPRPSYEPRP the value was -0.53; for RRIRTRPPRLPRPRPRPECKPRP, 0.165.
As for RRIRTRPPRLPRPRPRPLCEPRP, the figure is -0.0895; as for RRIRNRPPRLPRPRPRPLFGPRP, 0.0228.
As for RRIRSRPPRLPRPRPRPPTMPRP, the figure is -0.00342; as for RRIRFRPPRLPRPRPRPWTEPRP, -0.119.
For RRIRARPPRLPRPRPRPGANPRP, the “shrunken log2 fold change” value stood at 0.589.
As for RRIRNRPPRLPRPRPRPGPKPRP, the figure is 0.284; as for RRIRVRPPRLPRPRPRPGSKPRP, 0.0731.
As for RRIRKRPPRLPRPRPRPPNNPRP, the figure is 0.364; as for RRIRKRPPRLPRPRPRPQELPRP, 0.329.
As for RRIRSRPPRLPRPRPRPTNGPRP, the figure is 0.0899; as for RRIRKRPPRLPRPRPRPAFDPRP, 0.451; as for RRIRIRPPRLPRPRPRPISEPRP, -0.492.
On to RRIRRRPPRLPRPRPRPSNCPRP, for which the “shrunken log2 fold change” value was -0.252.
Turning to RRIRARPPRLPRPRPRPCACPRP, the “shrunken log2 fold change” value stood at 0.0599.
As for RRIRIRPPRLPRPRPRPWIPPRP, the figure is -0.562.
Take RRIRSRPPRLPRPRPRPKCNPRP: the “shrunken log2 fold change” value was -0.174.
As for RRIRTRPPRLPRPRPRPKGWPRP, the figure is 0.414; as for RRIRHRPPRLPRPRPRPNVFPRP, -0.116.
As for RRIRNRPPRLPRPRPRPGHMPRP, the figure is -0.147.
For RRIRNRPPRLPRPRPRPMCHPRP, the “shrunken log2 fold change” value is 0.0429.
As for RRIRIRPPRLPRPRPRPGVWPRP, the figure is 0.191; as for RRIRSRPPRLPRPRPRPAPHPRP, 0.276; as for RRIRERPPRLPRPRPRPKVYPRP, -0.126.
For RRIRNRPPRLPRPRPRPDRIPRP the value was -0.0387; for RRIRPRPPRLPRPRPRPWKSPRP, 0.0643; for RRIRARPPRLPRPRPRPGCRPRP, 0.609.
For RRIRYRPPRLPRPRPRPVMCPRP the value was -0.266; for RRIRTRPPRLPRPRPRPNREPRP, 0.115.
Consider RRIRRRPPRLPRPRPRPGCWPRP, for which the “shrunken log2 fold change” value came out at 0.561.
As to RRIRPRPPRLPRPRPRPHGHPRP, the “shrunken log2 fold change” value was determined as 0.0412.
As for RRIRARPPRLPRPRPRPIHFPRP, the figure is -0.169; as for RRIRTRPPRLPRPRPRPCHNPRP, -0.0285; as for RRIRYRPPRLPRPRPRPNKEPRP, -0.0622.
In the case of RRIRDRPPRLPRPRPRPGSAPRP, the “shrunken log2 fold change” value came to 0.238.
RRIRYRPPRLPRPRPRPKSVPRP: the “shrunken log2 fold change” value was -0.187.
As to RRIRKRPPRLPRPRPRPQVWPRP, the “shrunken log2 fold change” value is -0.0233.
For RRIRFRPPRLPRPRPRPMTNPRP the value was -0.2; for RRIRCRPPRLPRPRPRPRVGPRP, 0.472.
For RRIRPRPPRLPRPRPRPNWGPRP the value was -0.057.
For RRIRNRPPRLPRPRPRPIIEPRP the value was 0.00312.
As for RRIRWRPPRLPRPRPRPFEMPRP, the “shrunken log2 fold change” value was -0.116.
Turning to RRIRIRPPRLPRPRPRPNKVPRP, the “shrunken log2 fold change” value was -0.393.
For RRIRQRPPRLPRPRPRPAEKPRP the value was -0.00963.
As for RRIRYRPPRLPRPRPRPYYKPRP, the figure is -0.534.
As for RRIRLRPPRLPRPRPRPNWYPRP, the figure is -0.771; as for RRIRTRPPRLPRPRPRPTFHPRP, -0.174; as for RRIRKRPPRLPRPRPRPNCCPRP, 0.179.
For the sequence RRIRLRPPRLPRPRPRPWLFPRP, the “shrunken log2 fold change” value was 0.193.
For RRIRMRPPRLPRPRPRPVPQPRP the value was 0.7.
As for RRIRVRPPRLPRPRPRPRPGPRP, the “shrunken log2 fold change” value is 0.627.
For the sequence RRIRIRPPRLPRPRPRPCSSPRP, the “shrunken log2 fold change” value is 0.00235.
As for RRIRVRPPRLPRPRPRPSYGPRP, the figure is -0.369.
For RRIRLRPPRLPRPRPRPHTRPRP the value was -0.0601.
For RRIRFRPPRLPRPRPRPFGEPRP the value was 0.135; for RRIRLRPPRLPRPRPRPDSIPRP, -0.0883.
Consider RRIRRRPPRLPRPRPRPQVLPRP, for which the “shrunken log2 fold change” value is 0.0646.
For RRIRSRPPRLPRPRPRPCPTPRP the value was -0.138.
As for RRIRIRPPRLPRPRPRPCRYPRP, the figure is -0.317.
Regarding RRIRPRPPRLPRPRPRPIMIPRP, the “shrunken log2 fold change” value was -0.169.
Consider RRIRERPPRLPRPRPRPEEPPRP, for which the “shrunken log2 fold change” value was determined as 0.139.
With RRIRPRPPRLPRPRPRPKKNPRP, the “shrunken log2 fold change” value stood at 0.0249.
Consider RRIRGRPPRLPRPRPRPCIDPRP, for which the “shrunken log2 fold change” value amounted to 0.877.
For RRIRYRPPRLPRPRPRPVVHPRP the value was -0.00114.
For RRIRDRPPRLPRPRPRPGPAPRP the value was 0.608; for RRIRERPPRLPRPRPRPRWHPRP, 0.0135; for RRIRQRPPRLPRPRPRPNNDPRP, -0.624.
As for RRIRCRPPRLPRPRPRPWLAPRP, the figure is -0.298.
Turning to RRIRSRPPRLPRPRPRPLFGPRP, the “shrunken log2 fold change” value came out at 0.157.
For RRIRQRPPRLPRPRPRPMERPRP, the “shrunken log2 fold change” value amounted to 0.301.
For RRIRMRPPRLPRPRPRPLHLPRP the value was -0.254.
For the sequence RRIRLRPPRLPRPRPRPRKYPRP, the “shrunken log2 fold change” value is -0.882.
As for RRIRPRPPRLPRPRPRPRYRPRP, the figure is 0.0725; as for RRIRPRPPRLPRPRPRPFRLPRP, -0.465; as for RRIRGRPPRLPRPRPRPTACPRP, 1.35.
As for RRIRFRPPRLPRPRPRPVNSPRP, the figure is -0.154.
As for RRIRYRPPRLPRPRPRPTCMPRP, the figure is -0.156; as for RRIRNRPPRLPRPRPRPMWQPRP, -0.222; as for RRIRSRPPRLPRPRPRPPTIPRP, 0.0521.
Turning to RRIRWRPPRLPRPRPRPQTFPRP, the “shrunken log2 fold change” value is -0.293.
As for RRIRKRPPRLPRPRPRPDPCPRP, the figure is 0.312; as for RRIRKRPPRLPRPRPRPAADPRP, 0.941; as for RRIRMRPPRLPRPRPRPCRTPRP, -0.129.
For RRIRIRPPRLPRPRPRPNCNPRP the value was -0.845; for RRIRTRPPRLPRPRPRPSTLPRP, -0.853.
As to RRIRARPPRLPRPRPRPTRNPRP, the “shrunken log2 fold change” value stood at 0.657.
